A short description of this data set: label from the status in PepcDB records.

For “MNSAVGAELFMGDDGVSLRPGLGGTESVLESWRYIMGKLRVGRFLISSRVNGPGRRFVIWFQGCPIRCRGCLNPEFHDEDGGHLIETARLVDMIRDLRDEIEGVTFTGGEPLAQAMELVKLAGAVKSMGLTVVCFTGYEMDEILKGNIEGGLELLEFVDVLIDGPYIEEKSAPLLWRGSTNQDVYFLTERYAEFRDRVMACSEMEAELKVGADGVYMTGIFDVEFWEELRRRLGDGSLEHHHHHH”, the protein production result is reported as “failed”.
Take “MNSFLIIIFRLYLPISVAILTGVLLSFSLEKLQGNFSKNKHLSLVVPNYLGKFLFWFGVPLGVINFVHKANLSGGIWLSPIVAWGAVVLGIFLSWLWVQTLFPKPSLAFQTSFTLVSTVGNTSYIGFPIILLLPQLGPDYFGWAILYDLLGTFLAAYGLGSILASRSLLTNPNKIISFGLDSPVFPINQKTITDHIKSSILKIFQWLKNNLVILVKNPTLIAFIIGLILRPIVFPPWLDISLGWFAWSIIMLSLILMGMRLQQLDSWGNIKIAFSAVSIKMLLVPLVIAMALTTAGLSGPPRLVLVLQSSMPSAFASLILAEAYDLDRDLVVTCLGLSSLMLFFTLPFWLWGFTTW”: the protein production result is “failed”.
Take “MNSILPSVSTLAVGARPARPNVSVVMVVYRTGEALVESIRHVLAEPLVDEFIIVDNGSSSRDEDMLRSLALTEPRVVLKQGHGNVGFARGANLGAVTAGGEYIVFLNPDANLQPSCVASLVTAFKGQPVPTIVGARVLNTDGSEQRGGRRGDVTPISTVLSFGQLTRRYPKLAGFEIHRENEPLPGAPVPMPTISGACFAMRRADFVALNGFDEGYFLHVEDIDLCWRARRAGGQVLFQPNAEVVHLGHTSLEHPVKVEFHKGVGLTRYFIKRADSLQLFAAAVLLAPAIMLMSVCRPLLWKLTGRPI”: the protein production result is recorded as “failed”.
The result for “MNSKAMQALIFLGFLATSCLAQAPAPAPTTVTPPPTALPPVTAETPSPIASPPVPVNEPTPAPTTSPTTSPVASPPQTDAPAPGPSAGLTPTSSPAPGPDGAADAPSAAWANKAFLVGTAVAGALYAVVLA” reads “failed”; that for “MNSKTHLLLALTMLIWAGSFIFIKIGLKELDPFNLAFYRFLLASPLLMAWVFWKRGLAKPSGSEWLHLSVLALSGVTLLYAFQFLALKYTTATNASILINTSAVFVALWGLVKGEANPRKLAGVFLSFAGVVLIVSKGTLEFFSSKTIFGDVLMIVDGFLWAVYTVLGSKMLLKYDHETLTAYAFALGTIFLIPFALMSGFANPVTFNPETVAALLYLSILCSVFAYVVWYYALTNADSTSVAVYVYLVPLFTAIFAFYALNEKPDFFTAIGGIITIAGVYLTTAKQHQ”, “failed”.
The result for “MNSLDKLKTFIIILIIFSIGFFSRIETAELKGMNTADRAYFTDENGLPYMYEPDSYYNYRLTANILDHGHPGDKIINGTPWDLHSNYPPGNRVNYPPLILWISLLFHNFINLFIPFSLIETCFWLPAIIGPLAGIVMFFMVRRYAGDLPGLLSGVLLVLAPVYFSRTVPGFFDTDMFNIIFPLLVIFFLLKATETKNNYMFPLLLSSFSLALLSLSWNGWAYIFYIIIISSILYMTLCKLKGKAVMGFSRKIAVFVIISLLIIGLAGRLGYALIFPTFFKFTFKSLSAGGWPGIFESISELSAPTFDEFLSLPGPVNMGIGLFGFVIIGSIMLRDEIKRVHLPDFSWYPFILIGIWLIIGLAAYSLSTRFALLVIPPLIIFLGLLMGVMASYLKGSPSMRLRRSGNVFILSLVVMLSTISFIQAYEIQFVPIVDDDFVAASYWIKNETSMDTVVITEWGYGHPLATFSQRPVLMDGGMNPSTPRSYWVYHAFATNNESLSIGIFSMLSTSGNKAVELLNNRTGNTSLTVTILDDILGVNRIYAEKTLQEKYGIDPGFTGELLSYTHPTNKPFIILTKDDMIKWGHWYIYYGFWDFNRSRGYDYIYYVGSSNDTGQIRYYSNDVKFDLTSGASWENRKPYTTIIKYRNFKRVIEGDGKSDFSIIVLLDKNQAIVVDKRFQDSLFVKLVILKEETEHIKPIYKNNSTIIWTVR” reads “failed”.
The result for “MNSLPGSIQTSRTNQQRPLISVIVPAYNAEDFILEALRSITAQDYEPLEILLVDDGSTDGTADLVRREMPTVRIIRQDNTGVAEARNTGLRNACGEFICLLDADDGWCPGKLHAQVQYLQQHPQTGAVYHAWQVWRPDAEGNFVSMPAPVVADSTAIDPALSGWIYPQLLMDCIVHTSTIMMRREFVEQLGFFRAELINGEDYDYWLRLSRLTRIDKLVGVYSFYRGSPGSLTNSVKPVNYEYNVVSAAAAKWGLAAPDGRALAAVDFQRRLGKLAFDFAYRHYRWGSARIARRAALQAWRHDPRRYKALLFWLASFFKREPRSAVQG” reads “failed”.
As for “MNSPWETESGDRRVESGAGVSVGGRGQSRPRSCSIKAAEGKKGRSSACAPRWRLRSALLREDRCRSAPRIPRGCFSPRAPWRGGNSCAHCPRPRSGRPETGRAWGSRRAPRRGRPPAHGAPRPLPGLPRAASDRWAPARTSLIFILCPRGCLLLSARTLGIPWQPTSLRSRPTSLSPASCATQRASSWACSSASIETRPLNFFISYDAPPLRTRTIKLLVTFLVEEVSRNGAAKQEQFQETLYFTHLPRDKRLQKELLALQNDPPPGMTLNEKSVQNSITQWIVDMEGAPGTLYEGEKFQLLFKFSSRYPFDSPQVMFTGENIPVHPHVYSNGHICLSILTEDWSPALSVQSVCLSIISMLSSCKEKRRPPDNSFYVRTCNKNPKKTKWWYHDDTC”, the protein production result was “failed”.
Consider “MNSQEQRGSFYAILSGFLYGFIGYFGISAIHGDLSASNMLFWRFLISSIFILIVLIPQLKNINDTYKSMFTAFLSGVLYYGLSTLLYFYASLYIGSGLSMVIFFTYPVIIMVFNYFFYSQTIPKIYYLAISVILIGMALLIDVNEIAFDLWGIFLGLASAFFYACYIVSSKNNEISPNVSTLMVCLGCMTTSLIVACLDHTFKVPTSFPVWLNLFGIGLVATVIPILLMLHSLKYISSEKASILSVLEPVFVVIFGVVLLGEELKPWHALGIVLVLAGALITLFSHRINLNQWLGAIYKS”, for which the protein production entry is on record as “failed”.
As for “MNSTLKSSVYILLIISVILVLNGYSYADSYVGGKPLDTLQNGTVTGDVNVDSYYGFTDPEGVGNNTGGNANITYTFNYTIPSNAQIKNATLYVLVYSGHMQEARQTYVNVTYNGNSLENQTLYTTYIYPPEGNNNTWLLGEGHDNDPYLMINNHTMRVTSDYLLWYDVTNMTKKDMNNTANVCTIGSYDGRIKLITLIVAYNIPGSTTATRYWINWGHDVSSYNDEDYTGETYFNGAVPNPANASVMIVHAASSDGIYTYNDQNLPNGTYQRRGSYSGYEIWNVTNIYNNGTNKFTYHKSPGTGLGGYYKIILAVQKVTYTPNIDLTLQTVTFNGGAAFVLENNTMRCQIKNNGSGASPATILALYANDELVATSIIPPINPSGTVYVNITDPTIRSATTETLYSNNNQNVTYRFVIDPYNEVPETNEANNEKTRTVPVLYNGYKG”, the protein production entry is on record as “failed”.
With “MNSVYFLNVSEALATPQDKLHTVRLFGTVAADGLTMLDGAPGVRFRLEDKDNTSKTVWVLYKGAVPDTFKPGVEVIIEGGLAPGEDTFKARTLMTKCPLEHHHHHH” the entry was “failed”; with “MNSYKYLKYSQYAKQALIFINFLAVTYYVFVYLFASKYIVAKNLSHVLLDKLDIVPIAPENIFFTTLFFFAIFLIVMFYRESILNKKEEINDWLIVAEIVLMILTFISLQFSYNGLFLLVFADIFYSYANFYNVKEQKYWLLFIILGFSMLLISNFDLLSLVMRLPSLDVYISFFPSGSRLIVMFIKNFLYSLNIIVFLISLVAYIMYSVAENHKIEEELRMAARANIELNDYVSLAEKIAEDKERKRIAREIHDTLGHALTGISAGIDAVTVLVDFDPNHAKSQLKNVSDVVREGIQDVRRSLEKMRPGALEKGSLKEALLKMIADYEKLSKLQVSLHYDWDNIDLDITKEDIIFRVIQETITNSLRHGHARHVSIDMLNEDFYIIKIKDDGIGCEDFKLGYGLTQMQERLAIIGGYADFESDDGFQTMVRIPKKKGEE”, “failed”.
In the case of “MNTDNPKSHISRIAYPAIIVFLILTLLGSLVERFHPFTSWLTPPVALLMGLAYALIFGSTHRRANKLGSKVLLQYSVVGLGFGMNLGESLASGRDGMMFTIISVFGTLLLGWFIGRKILQMNRNTSALISAGTAICGGSAIAAVGPILKAEEHEMSVALGTVFLLNAVALFIFPSIGHWLALDQQQFGTWAAIAIHDTSSVVGAGSAYGEEALRVATTIKLTRALWIVPLTLVFSFVYKTKGAKRFPVPLFILFFIGAIILNTYLLEAYFPEVGRFVASLARKGLTLSLFFIGASLTKEVIASVGVRALLQGLFLWILISVGSLAFILLI”, the protein production entry is listed as “failed”.
Turning to “MNTEAEQQLLHHARNGNAEEVRKLLEAMARAEVVADIDCKGRSKSNLGWTPLHLACYFGHKQVVQDLLKAGAKVNMLNDMGDTPLHRAAFTGRKELVMLLLEYNADTTVVNGSGQTAKEATHDKEIRQMLEAVERTQQRKLEELLLGAAREGRTAEVSALLSRPNPPDVNCSDQLGNTPLHCAAYRAHKQCVLKLLRSGADPSLKNKNDQKPLDLAHGTEMKHILVGNKVVHKALKRFEGPLWKSSRFFGWKLFWVVLEHGVLSWYRKQPDAVHNSYRQGCKHLTQAVCTVKPTDGCLFSVRCFDDTVHGFRVPKNSLQQSREKWLEAIEEHSAYSTHYCSQDQVTDDEEEDVASAMDLKESLARAQTCQQRLDREIYNFLKMIKECDVAKDMLPSFLQKADVLSEASRETCVALSDCLNLFTKQEGVRNFKLEQEQEKNKILSEALETLATEHHELERSLVEGSPPVSILSEDEFYDALSGSESEGSLTCLEAVTARAFEENEVPANSGKHRMSEGKDCGGGDALSNGIKKHRTSLPSPMFSRNDFSIWSILRKCIGMELSKITMPVIFNEPLSFLQRLTEYMEHTYLIHKASSFSDPVERMQCVAAFAVSAVASQWERTGKPFNPLLGETYELVRDDLGFRLISEQVSHHPPISAFHAEGLNNDFIFHGSIYPKLKFWGKSVEAEPKGTITLELLEHNEAYTWTNPTCCVHNIIVGKLWIEQYGNVEIINHKTGDKCVLNFKPCGLFGKELHKVEGYIQDKSKKKLCALYGKWTECLYSVDPATFDAYKKNDKKNTEEKKTSKQASTSEESDEMPVPDSESVFVIPGSALLWRIAPRPPNSAQMYNFTSFAMVLNEVDKEMETVIPKTDCRLRPDIRAMENGEIDQASEEKKRLEEKQRAARKNRSKSEEDWKTRWFHQGPNPYSGAQDWIYSGSYWDRNYFNLPDIY”, the protein production entry was “failed”.
In the case of “MNTFGIFLTISAYTFFSWAYSKKKTPILNPVLLSILLIALILKVGNISYEKYMESARFLSFLLGPAVVSLAIPLYKQINIVKEYKKEIATGIITGGTTAILSAVYILKAFNSPEILQRTIAPKSVTTAIAMGVSEKIGGIPELTAVLVILTGILGNALAPELLDFFKIKDRVARGLATGVSSHGLGTARIILEDELSGAVSGLAMALNGVYTAFLLPLIIELIV”, the protein production result is reported as “failed”.
As to “MNTKNLVFVALFSSIMGVLGLIPPIALSITPVPITLQSLGVMLAGGLLGSRLGALSQLIFLLIVGVGAPLLAGGRGGLGVFVGPSAGYLLGYIIGAFVIGYLIERLREVSIIKVLCINIIGGIFVVYVFGITVQAFLMDVSVWETMKVSAVFLPGDCIKAIIAAVLVTKLHRSLKHIITPALKNGKYTNAG”, the protein production entry is recorded as “failed”.
With “MNTLFFSRQQYWLALIFGCLLVFLAASLGHGQWLDYAQRVATLDEPLSRLRWIVGDISEVAFYKHELPALGLLLGACLAHWAQLRGYRWQGFAICYGSGLWPWVFTSSLLGLLLSHVLWGWTLASGTWQPTFVAFVSLPAAMVLLFGAGWRVTITGALLGALLVTPAGLLMVNYLCYPLQLPVVVGNVSGMAVASVVAFILCKRFPSWVRQCGEPTVVAPVVNQPDYGVVWTLRRVLADFSEAPFFGNELASLGLLLGVLLAYLLSPAALSYGSMLVMQMVAGQALASLVGVVLWRGQWKARGWYPTYIPIVSIVPAAVLTHGGSWQVVVASAVLGALVAPPLAVAITQRLPAYVHGYIGNVVSMAICTLGIVPVVGLLVGGEA” the entry was “failed”.
